Target: T1, DraTopIB (Deinococcus radiodurans, UniProt Q9RWH8 1-346)
T1 sequence: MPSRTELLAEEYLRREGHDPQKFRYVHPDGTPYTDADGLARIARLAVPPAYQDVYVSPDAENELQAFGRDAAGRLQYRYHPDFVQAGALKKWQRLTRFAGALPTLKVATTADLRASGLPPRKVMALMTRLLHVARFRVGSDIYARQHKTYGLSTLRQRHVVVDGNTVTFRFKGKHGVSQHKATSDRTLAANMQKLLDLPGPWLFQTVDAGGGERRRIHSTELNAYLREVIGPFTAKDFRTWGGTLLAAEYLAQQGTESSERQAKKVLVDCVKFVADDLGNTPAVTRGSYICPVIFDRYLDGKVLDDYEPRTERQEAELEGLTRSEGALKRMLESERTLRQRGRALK
Assay: crystal structure

B1: 12-bp duplex (dsDNA)
DNA 1: GAATAAGGGCGC
DNA 2: GCGCCCTTATTC
  binding result: binds

From article PMC2886027
